# Results published in the RNAGym collection of RNA variant scans (doi:10.7554/elife.80360).
# B1: Twister Ribozyme (parent)
# chain: AACACUGCCAAUGCCGGUCCCAAGCCCGGAUAAAAGUGGAGGGGGCGG
# Variants of: B1
# Assay: self-cleavage, relative activity (ratio to wild type); higher = more cleavage; co-transcriptional
row,Variant,self-cleavage
1,AACACUGCCAAUGCCGGUCCGAAGCCCGGAUACAAGUGGAGGGGGCGG [C21G A33C],0.152
2,AACACUGCCAAUGCCGGUCCGAAGCCCGGAUAGAAGUGGAGGGGGCGG [C21G A33G],0.03
3,AACACUGCCAAUGCCGGUCCGAAGCCCGGAUAAGAGUGGAGGGGGCGG [C21G A34G],0.0977
4,AACACUGCCAAUGCCGGUCCGAAGCCCGGAUAAUAGUGGAGGGGGCGG [C21G A34U],0.0291
5,AACACUGCCAAUGCCGGUCCGAAGCCCGGAUAAAAGUGGCGGGGGCGG [C21G A40C],0.0546
6,AACACUGCCAAUGCCGGUCCGAAGCCCGGAUAAAAGUGGGGGGGGCGG [C21G A40G],0.0831
7,AACACUGCCAAUGCCGGUCCGAAGACCGGAUAAAAGUGGAGGGGGCGG [C21G C25A],0.0791
8,AACACUGCCAAUGCCGGUCCGAAGCGCGGAUAAAAGUGGAGGGGGCGG [C21G C26G],0.0411
9,AACACUGCCAAUGCCGGUCCGAAGCCAGGAUAAAAGUGGAGGGGGCGG [C21G C27A],0.0855
10,AACACUGCCAAUGCCGGUCCGAAGCCCGGAUAAAAGUGGAGGGGGUGG [C21G C46U],0.0875
11,AACACUGCCAAUGCCGGUCCGAAGCCCAGAUAAAAGUGGAGGGGGCGG [C21G G28A],0.124
12,AACACUGCCAAUGCCGGUCCGAAGCCCCGAUAAAAGUGGAGGGGGCGG [C21G G28C],0.0382
13,AACACUGCCAAUGCCGGUCCGAAGCCCUGAUAAAAGUGGAGGGGGCGG [C21G G28U],0.0788
14,AACACUGCCAAUGCCGGUCCGAAGCCCGCAUAAAAGUGGAGGGGGCGG [C21G G29C],0.123
15,AACACUGCCAAUGCCGGUCCGAAGCCCGUAUAAAAGUGGAGGGGGCGG [C21G G29U],0.0841
16,AACACUGCCAAUGCCGGUCCGAAGCCCGGAUAAAAAUGGAGGGGGCGG [C21G G36A],0.0998
17,AACACUGCCAAUGCCGGUCCGAAGCCCGGAUAAAAUUGGAGGGGGCGG [C21G G36U],0.0888
18,AACACUGCCAAUGCCGGUCCGAAGCCCGGAUAAAAGUCGAGGGGGCGG [C21G G38C],0.0966
19,AACACUGCCAAUGCCGGUCCGAAGCCCGGAUAAAAGUUGAGGGGGCGG [C21G G38U],0.0824
20,AACACUGCCAAUGCCGGUCCGAAGCCCGGAUAAAAGUGAAGGGGGCGG [C21G G39A],0.0549
21,AACACUGCCAAUGCCGGUCCGAAGCCCGGAUAAAAGUGCAGGGGGCGG [C21G G39C],0.128
22,AACACUGCCAAUGCCGGUCCGAAGCCCGGAUAAAAGUGGACGGGGCGG [C21G G41C],0.577
23,AACACUGCCAAUGCCGGUCCGAAGCCCGGAUAAAAGUGGAUGGGGCGG [C21G G41U],0.32
24,AACACUGCCAAUGCCGGUCCGAAGCCCGGAUAAAAGUGGAGUGGGCGG [C21G G42U],0.111
25,AACACUGCCAAUGCCGGUCCGAAGCCCGGAUAAAAGUGGAGGCGGCGG [C21G G43C],0.0506
26,AACACUGCCAAUGCCGGUCCGAAGCCCGGAUAAAAGUGGAGGGAGCGG [C21G G44A],0.0938
27,AACACUGCCAAUGCCGGUCCGAAGCCCGGAUAAAAGUGGAGGGCGCGG [C21G G44C],0.0843

row,Variant,self-cleavage
1,AACACUGCCAAUGCCGGUCCGAAGCCCGGAUAAAAGUGGAGGGUGCGG [C21G G44U],0.102
2,AACACUGCCAAUGCCGGUCCGAAGCCCGGAUAAAAGUGGAGGGGACGG [C21G G45A],0.114
3,AACACUGCCAAUGCCGGUCCGAAGCCCGGAUAAAAGUGGAGGGGCCGG [C21G G45C],0.0674
4,AACACUGCCAAUGCCGGUCCGAAGCCCGGAUAAAAGUGGAGGGGUCGG [C21G G45U],0.0493
5,AACACUGCCAAUGCCGGUCCGAAGCCCGGAUAAAAGUGGAGGGGGCAG [C21G G47A],0.0718
6,AACACUGCCAAUGCCGGUCCGAAGCCCGGAUAAAAGUGGAGGGGGCUG [C21G G47U],0.142
7,AACACUGCCAAUGCCGGUCCGAAGCCCGGAUAAAAGUGGAGGGGGCGC [C21G G48C],0.0934
8,AACACUGCCAAUGCCGGUCCGAAGCCCGGAUAAAAGUGGAGGGGGCGU [C21G G48U],0.0902
9,AACACUGCCAAUGCCGGUCCGAAGCCCGGAAAAAAGUGGAGGGGGCGG [C21G U31A],0.0515
10,AACACUGCCAAUGCCGGUCCGAAGCCCGGACAAAAGUGGAGGGGGCGG [C21G U31C],0.0753
11,AACACUGCCAAUGCCGGUCCGAAGCCCGGAUAAAAGAGGAGGGGGCGG [C21G U37A],0.101
12,AACACUGCCAAUGCCGGUCCGAAGCCCGGAUAAAAGCGGAGGGGGCGG [C21G U37C],0.0765
13,AACACUGCCAAUGCCGGUCCUAAGCCCGGAUAAAAGUGGAGGGGGCGG [C21U],0.129
14,AACACUGCCAAUGCCGGUCCUUAGCCCGGAUAAAAGUGGAGGGGGCGG [C21U A22U],0.072
15,AACACUGCCAAUGCCGGUCCUAAGCCCGGCUAAAAGUGGAGGGGGCGG [C21U A30C],0.0806
16,AACACUGCCAAUGCCGGUCCUAAGCCCGGUUAAAAGUGGAGGGGGCGG [C21U A30U],0.141
17,AACACUGCCAAUGCCGGUCCUAAGCCCGGAUCAAAGUGGAGGGGGCGG [C21U A32C],0.107
18,AACACUGCCAAUGCCGGUCCUAAGCCCGGAUUAAAGUGGAGGGGGCGG [C21U A32U],0.127
19,AACACUGCCAAUGCCGGUCCUAAGCCCGGAUACAAGUGGAGGGGGCGG [C21U A33C],0.119
20,AACACUGCCAAUGCCGGUCCUAAGCCCGGAUAUAAGUGGAGGGGGCGG [C21U A33U],0.0831
21,AACACUGCCAAUGCCGGUCCUAAGCCCGGAUAAGAGUGGAGGGGGCGG [C21U A34G],0.0608
22,AACACUGCCAAUGCCGGUCCUAAGCCCGGAUAAUAGUGGAGGGGGCGG [C21U A34U],0.11
23,AACACUGCCAAUGCCGGUCCUAAGCCCGGAUAAAUGUGGAGGGGGCGG [C21U A35U],0.115
24,AACACUGCCAAUGCCGGUCCUAAGUCCGGAUAAAAGUGGAGGGGGCGG [C21U C25U],0.0856
25,AACACUGCCAAUGCCGGUCCUAAGCGCGGAUAAAAGUGGAGGGGGCGG [C21U C26G],0.0581
26,AACACUGCCAAUGCCGGUCCUAAGCUCGGAUAAAAGUGGAGGGGGCGG [C21U C26U],0.0769
27,AACACUGCCAAUGCCGGUCCUAAGCCAGGAUAAAAGUGGAGGGGGCGG [C21U C27A],0.0634
